Test results from publication PMC12866175 (European journal of nuclear medicine and molecular imaging, 2021).

Experiment: Radiation dosimetry and clearance kinetics from biodistribution data
Assay type: in vivo, BALB/c mice
Conditions: for Total absorbed dose/injected activity: sum of five α-emitting radionuclides

## C[C@@H](O)[C@H](NC(=O)[C@@H]1CSSC[C@H](NC(=O)[C@@H](Cc2ccccc2)NC(=O)CN2CCN(CC(=O)O)CCN(CC(=O)O)CCN(CC(=O)O)CC2)C(=O)N[C@@H](Cc2ccc(O)cc2)C(=O)N[C@H](Cc2c[nH]c3ccccc23)C(=O)N[C@@H](CCCCN)C(=O)N[C@@H]([C@@H](C)O)C(=O)N1)C(=O)O [[^225Ac]Ac-DOTA-TATE, metal not drawn]
^217At, Muscle
  Initial activity/organ, A○: 0.0052 kBq
^217At, Pancreas
  Absorbed dose/injected activity: 0.0003 Gy/kBq
  Accumulated activity/organ, A~: 1.1933 kBq×h
  Decay rate constant, λeff: 0.0080 h⁻¹
  Initial activity/organ, A○: 0.0169 kBq
^217At, Salivary
  Absorbed dose/injected activity: 0.0002 Gy/kBq
  Accumulated activity/organ, A~: 0.7036 kBq×h
  Decay rate constant, λeff: -0.0028 h⁻¹
  Initial activity/organ, A○: 0.0037 kBq
^217At, Skin
  Absorbed dose/injected activity: 0.0001 Gy/kBq
  Accumulated activity/organ, A~: 0.6489 kBq×h
  Decay rate constant, λeff: -0.0015 h⁻¹
  Initial activity/organ, A○: 0.0039 kBq
^217At, Spleen
  Absorbed dose/injected activity: 0.0004 Gy/kBq
  Accumulated activity/organ, A~: 1.0604 kBq×h
  Decay rate constant, λeff: 0.0030 h⁻¹
  Initial activity/organ, A○: 0.0097 kBq
^217At, Stomach
  Absorbed dose/injected activity: 0.0005 Gy/kBq
  Accumulated activity/organ, A~: 3.0452 kBq×h
  Decay rate constant, λeff: 0.0170 h⁻¹
^221Fr, Blood
  Absorbed dose/injected activity: 0.0001 Gy/kBq
  Accumulated activity/organ, A~: 0.5594 kBq×h
  Decay rate constant, λeff: -0.0071 h⁻¹
  Initial activity/organ, A○: 0.0019 kBq
^221Fr, Bone
  Absorbed dose/injected activity: 0.0003 Gy/kBq
  Accumulated activity/organ, A~: 1.0195 kBq×h
  Decay rate constant, λeff: 0.0100 h⁻¹
  Initial activity/organ, A○: 0.0170 kBq
^221Fr, Brain
  Absorbed dose/injected activity: 0.0001 Gy/kBq
  Accumulated activity/organ, A~: 0.7934 kBq×h
  Decay rate constant, λeff: -0.0044 h⁻¹
  Initial activity/organ, A○: 0.0036 kBq
^221Fr, Heart
  Absorbed dose/injected activity: 0.0000 Gy/kBq
  Accumulated activity/organ, A~: 0.2102 kBq×h
  Decay rate constant, λeff: 0.0190 h⁻¹
  Initial activity/organ, A○: 0.0067 kBq
^221Fr, Intestine
  Absorbed dose/injected activity: 0.0002 Gy/kBq
  Accumulated activity/organ, A~: 7.2991 kBq×h
  Decay rate constant, λeff: 0.0130 h⁻¹
^221Fr, Kidney
  Absorbed dose/injected activity: 0.0019 Gy/kBq
  Accumulated activity/organ, A~: 12.5136 kBq×h
  Decay rate constant, λeff: 0.0190 h⁻¹
  Initial activity/organ, A○: 0.4011 kBq
^221Fr, Liver
  Absorbed dose/injected activity: 0.0014 Gy/kBq
  Accumulated activity/organ, A~: 32.1637 kBq×h
  Decay rate constant, λeff: -0.0033 h⁻¹
  Initial activity/organ, A○: 0.1612 kBq
^221Fr, Lung
  Absorbed dose/injected activity: 0.0003 Gy/kBq
  Accumulated activity/organ, A~: 1.7734 kBq×h
  Decay rate constant, λeff: 0.0080 h⁻¹
  Initial activity/organ, A○: 0.0251 kBq
^221Fr, Muscle
  Absorbed dose/injected activity: 0.0000 Gy/kBq
  Accumulated activity/organ, A~: 0.1848 kBq×h
  Decay rate constant, λeff: 0.0170 h⁻¹
  Initial activity/organ, A○: 0.0052 kBq
^221Fr, Pancreas
  Absorbed dose/injected activity: 0.0003 Gy/kBq
  Accumulated activity/organ, A~: 1.1933 kBq×h
  Decay rate constant, λeff: 0.0080 h⁻¹
  Initial activity/organ, A○: 0.0169 kBq
^221Fr, Salivary
  Absorbed dose/injected activity: 0.0002 Gy/kBq
  Accumulated activity/organ, A~: 0.7036 kBq×h
  Decay rate constant, λeff: -0.0028 h⁻¹
  Initial activity/organ, A○: 0.0037 kBq
^221Fr, Skin
  Absorbed dose/injected activity: 0.0001 Gy/kBq
  Accumulated activity/organ, A~: 0.6489 kBq×h
  Decay rate constant, λeff: -0.0015 h⁻¹
  Initial activity/organ, A○: 0.0039 kBq
^221Fr, Spleen
  Absorbed dose/injected activity: 0.0004 Gy/kBq
  Accumulated activity/organ, A~: 1.0604 kBq×h
  Decay rate constant, λeff: 0.0030 h⁻¹
  Initial activity/organ, A○: 0.0097 kBq
^221Fr, Stomach
  Absorbed dose/injected activity: 0.0004 Gy/kBq
  Accumulated activity/organ, A~: 3.0452 kBq×h
  Decay rate constant, λeff: 0.0170 h⁻¹
  Initial activity/organ, A○: 0.0852 kBq
^225Ac
  lower effective half-life of kidneys compared to liver: ~5 fold
^225Ac, Blood
  Absorbed dose/injected activity: 0.0000 Gy/kBq
  Accumulated activity/organ, A~: 0.0080 kBq×h
  Decay rate constant, λeff: 0.0206 h⁻¹
  Initial activity/organ, A○: 0.0003 kBq
^225Ac, Bone
  Absorbed dose/injected activity: 0.0004 Gy/kBq
  Accumulated activity/organ, A~: 1.4274 kBq×h
  Decay rate constant, λeff: 0.0030 h⁻¹
  Initial activity/organ, A○: 0.0131 kBq
^225Ac, Brain
  Absorbed dose/injected activity: 0.0001 Gy/kBq
  Accumulated activity/organ, A~: 0.8190 kBq×h
  Decay rate constant, λeff: -0.0103 h⁻¹
  Initial activity/organ, A○: 0.0019 kBq
^225Ac, Heart
  Absorbed dose/injected activity: 0.0001 Gy/kBq
  Accumulated activity/organ, A~: 0.4871 kBq×h
  Decay rate constant, λeff: -0.0004 h⁻¹
  Initial activity/organ, A○: 0.0033 kBq
^225Ac, Intestine
  Absorbed dose/injected activity: 0.0001 Gy/kBq
  Accumulated activity/organ, A~: 4.4589 kBq×h
  Decay rate constant, λeff: 0.0200 h⁻¹
  Initial activity/organ, A○: 0.1527 kBq
^225Ac, Kidney
  Absorbed dose/injected activity: 0.0012 Gy/kBq
  Accumulated activity/organ, A~: 8.2462 kBq×h
  Decay rate constant, λeff: 0.0250 h⁻¹
  Initial activity/organ, A○: 0.3862 kBq
^225Ac, Liver
  Absorbed dose/injected activity: 0.0012 Gy/kBq
  Accumulated activity/organ, A~: 29.4458 kBq×h
  Decay rate constant, λeff: -0.0053 h⁻¹
  Initial activity/organ, A○: 0.1200 kBq
^225Ac, Lung
  Absorbed dose/injected activity: 0.0001 Gy/kBq
  Accumulated activity/organ, A~: 1.0829 kBq×h
  Decay rate constant, λeff: 0.0130 h⁻¹
  Initial activity/organ, A○: 0.0227 kBq
^225Ac, Muscle
  Absorbed dose/injected activity: 0.0001 Gy/kBq
  Accumulated activity/organ, A~: 0.5613 kBq×h
  Decay rate constant, λeff: -0.0049 h⁻¹
  Initial activity/organ, A○: 0.0024 kBq
^225Ac, Pancreas
  Absorbed dose/injected activity: 0.0003 Gy/kBq
  Accumulated activity/organ, A~: 1.4271 kBq×h
  Decay rate constant, λeff: 0.0060 h⁻¹
  Initial activity/organ, A○: 0.0171 kBq
^225Ac, Salivary
  Absorbed dose/injected activity: 0.0002 Gy/kBq
  Accumulated activity/organ, A~: 0.8906 kBq×h
  Decay rate constant, λeff: -0.0077 h⁻¹
  Initial activity/organ, A○: 0.0028 kBq
^225Ac, Skin
  Absorbed dose/injected activity: 0.0001 Gy/kBq
  Accumulated activity/organ, A~: 0.8656 kBq×h
  Decay rate constant, λeff: -0.0092 h⁻¹
  Initial activity/organ, A○: 0.0023 kBq
^225Ac, Spleen
  Absorbed dose/injected activity: 0.0001 Gy/kBq
  Accumulated activity/organ, A~: 0.3228 kBq×h
  Decay rate constant, λeff: 0.0062 h⁻¹
  Initial activity/organ, A○: 0.0039 kBq
^225Ac, Stomach
  Absorbed dose/injected activity: 0.0004 Gy/kBq
  Accumulated activity/organ, A~: 2.6801 kBq×h
  Decay rate constant, λeff: 0.0190 h⁻¹
  Initial activity/organ, A○: 0.0859 kBq
Blood
  Total absorbed dose/injected activity: 0.0002 Gy/kBq
Bone
  Total absorbed dose/injected activity: 0.0014 Gy/kBq
Brain
  Total absorbed dose/injected activity: 0.0004 Gy/kBq
Heart
  Total absorbed dose/injected activity: 0.0004 Gy/kBq
Intestine
  Total absorbed dose/injected activity: 0.0007 Gy/kBq
Kidney
  Total absorbed dose/injected activity: 0.0068 Gy/kBq
Liver
  Total absorbed dose/injected activity: 0.0059 Gy/kBq
Lung
  Total absorbed dose/injected activity: 0.0009 Gy/kBq
Muscle
  Total absorbed dose/injected activity: 0.0003 Gy/kBq
Pancreas
  Total absorbed dose/injected activity: 0.0011 Gy/kBq
Salivary
  Total absorbed dose/injected activity: 0.0008 Gy/kBq
Skin
  Total absorbed dose/injected activity: 0.0004 Gy/kBq
Spleen
  Total absorbed dose/injected activity: 0.0016 Gy/kBq
Stomach
  Total absorbed dose/injected activity: 0.0017 Gy/kBq
